*1 amine or outer side, *2 acyl side, *3 side chain or, on linkers, in order; H or OH if unused. Where no end group is shown, it is not given here. Side-chain parts run from the residue outwards. [ ]: non-standard residue; d: D form. The star is where a group is joined. γGlu = O=C(O)[C@H](CCC(=O)[*:2])N[*:1]; Stearoyl = CCCCCCCCCCCCCCCCCC(=O)*; Palmitoyl = CCCCCCCCCCCCCCCC(=O)*; d(αMeK) = C[C@@](N)(CCCCN)C(=O)O; αMeOrn = C[C@](N)(CCCN)C(=O)O; αMeK = C[C@](N)(CCCCN)C(=O)O; Api = NC1(C(=O)O)CCNCC1; Aib = CC(C)(N)C(=O)O
T1: human GIP receptor (human, UniProt P48546 22-466)
T1 sequence (looked up): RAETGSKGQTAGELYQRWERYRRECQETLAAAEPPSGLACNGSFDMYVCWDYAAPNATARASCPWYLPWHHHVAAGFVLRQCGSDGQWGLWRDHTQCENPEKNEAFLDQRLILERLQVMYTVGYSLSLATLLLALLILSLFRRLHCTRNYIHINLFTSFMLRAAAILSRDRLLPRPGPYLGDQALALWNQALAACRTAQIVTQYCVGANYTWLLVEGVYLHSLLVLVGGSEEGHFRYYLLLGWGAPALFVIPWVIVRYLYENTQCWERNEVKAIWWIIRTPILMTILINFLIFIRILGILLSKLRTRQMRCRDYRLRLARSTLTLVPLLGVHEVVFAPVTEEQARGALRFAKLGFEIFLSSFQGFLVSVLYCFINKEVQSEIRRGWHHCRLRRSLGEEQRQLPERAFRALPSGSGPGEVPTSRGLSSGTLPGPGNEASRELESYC

B1: SEQ ID NO: 13 (peptide)
peptide: Y[Aib]QGTFTSDLSIQK([γGlu-Stearoyl])DEQRA[d(αMeK)]EFIEWLKSGGPSSGAPPPS-NH2
modifications: N-terminus assumed
SMILES: CCCCCCCCCCCCCCCCCC(=O)N[C@@H](CCC(=O)NCCCC[C@H](NC(=O)[C@H](CCC(N)=O)NC(=O)[C@@H](NC(=O)[C@H](CO)NC(=O)[C@H](CC(C)C)NC(=O)[C@H](CC(=O)O)NC(=O)[C@H](CO)NC(=O)[C@@H](NC(=O)[C@H](Cc1ccccc1)NC(=O)[C@@H](NC(=O)CNC(=O)[C@H](CCC(N)=O)NC(=O)C(C)(C)NC(=O)[C@@H](N)Cc1ccc(O)cc1)[C@@H](C)O)[C@@H](C)O)[C@@H](C)CC)C(=O)N[C@@H](CC(=O)O)C(=O)N[C@@H](CCC(=O)O)C(=O)N[C@@H](CCC(N)=O)C(=O)N[C@@H](CCCNC(=N)N)C(=O)N[C@@H](C)C(=O)N[C@](C)(CCCCN)C(=O)N[C@@H](CCC(=O)O)C(=O)N[C@@H](Cc1ccccc1)C(=O)N[C@H](C(=O)N[C@@H](CCC(=O)O)C(=O)N[C@@H](Cc1c[nH]c2ccccc12)C(=O)N[C@@H](CC(C)C)C(=O)N[C@@H](CCCCN)C(=O)N[C@@H](CO)C(=O)NCC(=O)NCC(=O)N1CCC[C@H]1C(=O)N[C@@H](CO)C(=O)N[C@@H](CO)C(=O)NCC(=O)N[C@@H](C)C(=O)N1CCC[C@H]1C(=O)N1CCC[C@H]1C(=O)N1CCC[C@H]1C(=O)N[C@@H](CO)C(N)=O)[C@@H](C)CC)C(=O)O
B2: SEQ ID NO: 10 (peptide)
peptide: Y[Aib]EGTFTSDLSIQK([γGlu-Palmitoyl])EERAA[αMeOrn]EFIEWLKNTGPSSGAPPPS-NH2
modifications: N-terminus assumed
SMILES: CCCCCCCCCCCCCCCC(=O)N[C@@H](CCC(=O)NCCCC[C@H](NC(=O)[C@H](CCC(N)=O)NC(=O)[C@@H](NC(=O)[C@H](CO)NC(=O)[C@H](CC(C)C)NC(=O)[C@H](CC(=O)O)NC(=O)[C@H](CO)NC(=O)[C@@H](NC(=O)[C@H](Cc1ccccc1)NC(=O)[C@@H](NC(=O)CNC(=O)[C@H](CCC(=O)O)NC(=O)C(C)(C)NC(=O)[C@@H](N)Cc1ccc(O)cc1)[C@@H](C)O)[C@@H](C)O)[C@@H](C)CC)C(=O)N[C@@H](CCC(=O)O)C(=O)N[C@@H](CCC(=O)O)C(=O)N[C@@H](CCCNC(=N)N)C(=O)N[C@@H](C)C(=O)N[C@@H](C)C(=O)N[C@@](C)(CCCN)C(=O)N[C@@H](CCC(=O)O)C(=O)N[C@@H](Cc1ccccc1)C(=O)N[C@H](C(=O)N[C@@H](CCC(=O)O)C(=O)N[C@@H](Cc1c[nH]c2ccccc12)C(=O)N[C@@H](CC(C)C)C(=O)N[C@@H](CCCCN)C(=O)N[C@@H](CC(N)=O)C(=O)N[C@H](C(=O)NCC(=O)N1CCC[C@H]1C(=O)N[C@@H](CO)C(=O)N[C@@H](CO)C(=O)NCC(=O)N[C@@H](C)C(=O)N1CCC[C@H]1C(=O)N1CCC[C@H]1C(=O)N1CCC[C@H]1C(=O)N[C@@H](CO)C(N)=O)[C@@H](C)O)[C@@H](C)CC)C(=O)O
B3: SEQ ID NO: 8 (peptide)
peptide: Y[Aib]EGTFTSDLSIQK([γGlu-Palmitoyl])EERAA[Api]EFIEWLKNTGPSSGAPPPS-NH2
modifications: N-terminus assumed
SMILES: CCCCCCCCCCCCCCCC(=O)N[C@@H](CCC(=O)NCCCC[C@H](NC(=O)[C@H](CCC(N)=O)NC(=O)[C@@H](NC(=O)[C@H](CO)NC(=O)[C@H](CC(C)C)NC(=O)[C@H](CC(=O)O)NC(=O)[C@H](CO)NC(=O)[C@@H](NC(=O)[C@H](Cc1ccccc1)NC(=O)[C@@H](NC(=O)CNC(=O)[C@H](CCC(=O)O)NC(=O)C(C)(C)NC(=O)[C@@H](N)Cc1ccc(O)cc1)[C@@H](C)O)[C@@H](C)O)[C@@H](C)CC)C(=O)N[C@@H](CCC(=O)O)C(=O)N[C@@H](CCC(=O)O)C(=O)N[C@@H](CCCNC(=N)N)C(=O)N[C@@H](C)C(=O)N[C@@H](C)C(=O)NC1(C(=O)N[C@@H](CCC(=O)O)C(=O)N[C@@H](Cc2ccccc2)C(=O)N[C@H](C(=O)N[C@@H](CCC(=O)O)C(=O)N[C@@H](Cc2c[nH]c3ccccc23)C(=O)N[C@@H](CC(C)C)C(=O)N[C@@H](CCCCN)C(=O)N[C@@H](CC(N)=O)C(=O)N[C@H](C(=O)NCC(=O)N2CCC[C@H]2C(=O)N[C@@H](CO)C(=O)N[C@@H](CO)C(=O)NCC(=O)N[C@@H](C)C(=O)N2CCC[C@H]2C(=O)N2CCC[C@H]2C(=O)N2CCC[C@H]2C(=O)N[C@@H](CO)C(N)=O)[C@@H](C)O)[C@@H](C)CC)CCNCC1)C(=O)O
B4: SEQ ID NO: 9 (peptide)
peptide: Y[Aib]EGTFTSDLSIQK([γGlu-Palmitoyl])EERAA[d(αMeK)]EFIEWLKNTGPSSGAPPPS-NH2
modifications: N-terminus assumed
SMILES: CCCCCCCCCCCCCCCC(=O)N[C@@H](CCC(=O)NCCCC[C@H](NC(=O)[C@H](CCC(N)=O)NC(=O)[C@@H](NC(=O)[C@H](CO)NC(=O)[C@H](CC(C)C)NC(=O)[C@H](CC(=O)O)NC(=O)[C@H](CO)NC(=O)[C@@H](NC(=O)[C@H](Cc1ccccc1)NC(=O)[C@@H](NC(=O)CNC(=O)[C@H](CCC(=O)O)NC(=O)C(C)(C)NC(=O)[C@@H](N)Cc1ccc(O)cc1)[C@@H](C)O)[C@@H](C)O)[C@@H](C)CC)C(=O)N[C@@H](CCC(=O)O)C(=O)N[C@@H](CCC(=O)O)C(=O)N[C@@H](CCCNC(=N)N)C(=O)N[C@@H](C)C(=O)N[C@@H](C)C(=O)N[C@](C)(CCCCN)C(=O)N[C@@H](CCC(=O)O)C(=O)N[C@@H](Cc1ccccc1)C(=O)N[C@H](C(=O)N[C@@H](CCC(=O)O)C(=O)N[C@@H](Cc1c[nH]c2ccccc12)C(=O)N[C@@H](CC(C)C)C(=O)N[C@@H](CCCCN)C(=O)N[C@@H](CC(N)=O)C(=O)N[C@H](C(=O)NCC(=O)N1CCC[C@H]1C(=O)N[C@@H](CO)C(=O)N[C@@H](CO)C(=O)NCC(=O)N[C@@H](C)C(=O)N1CCC[C@H]1C(=O)N1CCC[C@H]1C(=O)N1CCC[C@H]1C(=O)N[C@@H](CO)C(N)=O)[C@@H](C)O)[C@@H](C)CC)C(=O)O
B5: SEQ ID NO: 12 (peptide)
peptide: Y[Aib]QGTFTSDLSKQK([γGlu-Stearoyl])DEQRA[αMeK]EFIEWLKSGGPSSGAPPPS-NH2
modifications: N-terminus assumed
SMILES: CCCCCCCCCCCCCCCCCC(=O)N[C@@H](CCC(=O)NCCCC[C@H](NC(=O)[C@H](CCC(N)=O)NC(=O)[C@H](CCCCN)NC(=O)[C@H](CO)NC(=O)[C@H](CC(C)C)NC(=O)[C@H](CC(=O)O)NC(=O)[C@H](CO)NC(=O)[C@@H](NC(=O)[C@H](Cc1ccccc1)NC(=O)[C@@H](NC(=O)CNC(=O)[C@H](CCC(N)=O)NC(=O)C(C)(C)NC(=O)[C@@H](N)Cc1ccc(O)cc1)[C@@H](C)O)[C@@H](C)O)C(=O)N[C@@H](CC(=O)O)C(=O)N[C@@H](CCC(=O)O)C(=O)N[C@@H](CCC(N)=O)C(=O)N[C@@H](CCCNC(=N)N)C(=O)N[C@@H](C)C(=O)N[C@@](C)(CCCCN)C(=O)N[C@@H](CCC(=O)O)C(=O)N[C@@H](Cc1ccccc1)C(=O)N[C@H](C(=O)N[C@@H](CCC(=O)O)C(=O)N[C@@H](Cc1c[nH]c2ccccc12)C(=O)N[C@@H](CC(C)C)C(=O)N[C@@H](CCCCN)C(=O)N[C@@H](CO)C(=O)NCC(=O)NCC(=O)N1CCC[C@H]1C(=O)N[C@@H](CO)C(=O)N[C@@H](CO)C(=O)NCC(=O)N[C@@H](C)C(=O)N1CCC[C@H]1C(=O)N1CCC[C@H]1C(=O)N1CCC[C@H]1C(=O)N[C@@H](CO)C(N)=O)[C@@H](C)CC)C(=O)O
B6: SEQ ID NO: 14 (peptide)
peptide: Y[Aib]EGTFTSDLSIQK([γGlu-Stearoyl])DERAA[αMeK]EFIEWLKNTGPSSGAPPPS-NH2
modifications: N-terminus assumed
SMILES: CCCCCCCCCCCCCCCCCC(=O)N[C@@H](CCC(=O)NCCCC[C@H](NC(=O)[C@H](CCC(N)=O)NC(=O)[C@@H](NC(=O)[C@H](CO)NC(=O)[C@H](CC(C)C)NC(=O)[C@H](CC(=O)O)NC(=O)[C@H](CO)NC(=O)[C@@H](NC(=O)[C@H](Cc1ccccc1)NC(=O)[C@@H](NC(=O)CNC(=O)[C@H](CCC(=O)O)NC(=O)C(C)(C)NC(=O)[C@@H](N)Cc1ccc(O)cc1)[C@@H](C)O)[C@@H](C)O)[C@@H](C)CC)C(=O)N[C@@H](CC(=O)O)C(=O)N[C@@H](CCC(=O)O)C(=O)N[C@@H](CCCNC(=N)N)C(=O)N[C@@H](C)C(=O)N[C@@H](C)C(=O)N[C@@](C)(CCCCN)C(=O)N[C@@H](CCC(=O)O)C(=O)N[C@@H](Cc1ccccc1)C(=O)N[C@H](C(=O)N[C@@H](CCC(=O)O)C(=O)N[C@@H](Cc1c[nH]c2ccccc12)C(=O)N[C@@H](CC(C)C)C(=O)N[C@@H](CCCCN)C(=O)N[C@@H](CC(N)=O)C(=O)N[C@H](C(=O)NCC(=O)N1CCC[C@H]1C(=O)N[C@@H](CO)C(=O)N[C@@H](CO)C(=O)NCC(=O)N[C@@H](C)C(=O)N1CCC[C@H]1C(=O)N1CCC[C@H]1C(=O)N1CCC[C@H]1C(=O)N[C@@H](CO)C(N)=O)[C@@H](C)O)[C@@H](C)CC)C(=O)O

Tests used:
Test in all cases: cell-based or functional assay
[1] = target: human GLP-1 receptor (human, UniProt P43220 24-463)
[2] = target: T1, human GIP receptor
[3] = target: human glucagon receptor (human, UniProt P47871 26-477)
Chain of human glucagon receptor (P47871 26-477): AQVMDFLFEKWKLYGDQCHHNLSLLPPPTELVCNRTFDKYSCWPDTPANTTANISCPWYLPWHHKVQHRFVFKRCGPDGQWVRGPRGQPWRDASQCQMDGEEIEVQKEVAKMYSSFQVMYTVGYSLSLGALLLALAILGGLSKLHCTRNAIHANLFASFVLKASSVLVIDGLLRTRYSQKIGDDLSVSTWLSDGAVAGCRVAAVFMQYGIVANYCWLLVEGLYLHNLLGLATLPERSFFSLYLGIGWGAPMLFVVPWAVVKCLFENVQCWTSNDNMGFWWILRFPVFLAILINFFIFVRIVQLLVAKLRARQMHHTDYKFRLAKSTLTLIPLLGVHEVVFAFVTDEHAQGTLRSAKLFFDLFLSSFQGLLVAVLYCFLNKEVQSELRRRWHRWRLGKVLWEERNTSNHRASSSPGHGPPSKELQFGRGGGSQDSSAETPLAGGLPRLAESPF

Row | Binder | EC50 hGLP-1 R [pM] (cAMP formation) [1] | EC50 hGIP R [pM] (cAMP formation) [2] | EC50 hGLUC R [pM] (cAMP formation) [3]
1 | B1 | 13.6 pM | 33.1 pM | 202 pM
2 | B2 | 4.9 pM | 7.1 pM | 10400 pM
3 | B3 | 4.7 pM | 16.3 pM | 34700 pM
4 | B4 | 13.5 pM | 93.2 pM | > 1e+06 pM
5 | B5 | 11.6 pM | 27 pM | –
6 | B6 | 7.2 pM | 4.5 pM | 4730 pM

From patent US20140221281A1 (Sanofi, published 2014)
